Consider two molecules from article PMC6753139, “TRIM66 reads unmodified H3R2K4 and H3K56ac to respond to DNA damage in embryonic stem cells” (Nature Communications, 2019).

One assay has as its target T1, TRIM24_824-1006 (Homo sapiens, UniProt O15164).
T1 construct: The fragments of TRIM24_824-1006 and TRIM33_882-1087 were ligated into a pET-SUMO-28a (+) plasmid; His-SUMO (N, cleaved yes); made in house; host or cells: Escherichia coli BL21 (DE3)
T1 sequence (O15164 824-1006): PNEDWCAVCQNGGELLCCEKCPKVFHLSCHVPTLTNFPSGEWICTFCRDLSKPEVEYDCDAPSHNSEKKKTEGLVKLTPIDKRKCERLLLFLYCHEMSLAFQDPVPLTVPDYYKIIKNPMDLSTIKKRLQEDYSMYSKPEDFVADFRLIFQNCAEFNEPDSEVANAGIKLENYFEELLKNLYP
Kind of assay: ITC, PHD-Bromodomain. Conditions: 25 °C, 20 mM Tris, 100 mM NaCl, pH 7.5, single measurement, error from curve fit, Weak binding = ITC curves cannot be fitted reliably. An excerpt: (§1) We subsequently compared the complex structure of TRIM24, TRIM33, and TRIM66 with H3 peptide. […] (Fig. 2d). […] However, they were sensitive to H3R2me2s (Table 2, Supplementary Fig. 5b, c, and Supplementary Table 2).
(§2) The DNA fragments of human TRIM66_968-1160, TRIM24_824-1006, and TRIM33_882-1087 were amplified from a human bone marrow cDNA library using a PCR-based cloning strategy. The fragments of TRIM66-WT968-1160 were inserted into a pGEX-4T-1 plasmid (GE Healthcare). The fragments of TRIM24_824-1006 and TRIM33_882-1087 were ligated into a pET-SUMO-28a (+) plasmid (Novagen). The DNA fragments of TRIM66-MUT968-1160 and TRIM66-WT965-1160 with codon optimization were synthesized by General Biosystems (sequence was shown in Supplementary Methods) and inserted into a pGEXT-4T-1 plasmid (GE Healthcare). Mutants of TRIM66 PHD-Bromo were generated through PCR using the Mutant Best kit (Takara). The mutation of point mutant based on the codon-optimized DNA sequence of TRIM66-WT965-1160. All constructs were expressed in Escherichia coli BL21 (DE3). […]
(§3) The calorimetric experiments were performed at 25 °C using a MicroCal PEAQ-ITC. […] Peptide concentrations were estimated from the quantitative NMR experiments[73],[74]. […] The ITC data were subsequently analyzed using the MicroCal PEAQ-ITC analysis software.

A further assay addresses T2, TRIM33_882-1087 (Homo sapiens, UniProt Q9UPN9).
T2 construct: The fragments of TRIM24_824-1006 and TRIM33_882-1087 were ligated into a pET-SUMO-28a (+) plasmid; His-SUMO (N, cleaved yes); made in house; host or cells: Escherichia coli BL21 (DE3)
T2 sequence (Q9UPN9 882-1087): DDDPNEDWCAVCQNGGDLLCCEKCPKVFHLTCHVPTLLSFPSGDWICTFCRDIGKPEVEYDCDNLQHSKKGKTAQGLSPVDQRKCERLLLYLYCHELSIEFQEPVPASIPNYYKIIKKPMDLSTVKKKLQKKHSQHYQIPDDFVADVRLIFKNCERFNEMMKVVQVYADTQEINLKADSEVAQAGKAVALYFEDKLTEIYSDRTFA
Kind of assay: ITC, PHD-Bromodomain. The conditions noted are these: 25 °C, 20 mM Tris, 100 mM NaCl, pH 7.5, single measurement, error from curve fit, Weak binding = ITC curves cannot be fitted reliably.
Description: as §1, §2, §3

A further assay concerns the target T3, TRIM66-WT965-1160 (Homo sapiens, UniProt O15016).
T3 construct: ITC titration: titrating TRIM66-WT965-1160 with various histone H3 peptides; GST (N, cleaved yes); made in house; host or cells: Escherichia coli BL21 (DE3)
T3 sequence (O15016 1100-1295): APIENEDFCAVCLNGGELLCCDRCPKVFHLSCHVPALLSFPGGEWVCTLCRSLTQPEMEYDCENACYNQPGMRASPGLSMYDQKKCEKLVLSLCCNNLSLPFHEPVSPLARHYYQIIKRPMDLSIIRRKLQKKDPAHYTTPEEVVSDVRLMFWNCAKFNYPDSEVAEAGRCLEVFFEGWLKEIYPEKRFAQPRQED
Kind of assay: ITC, PHD-Bromodomain wild type. The class given is binding. The conditions noted are these: ITC, 25 °C, pH 7.5. The text has this: We next performed the glutathione S-transferase (GST) pulldown assays of the TRIM66-WT965-1160 against the calf thymus histones to verify the histone-binding ability of TRIM66 PHD-Bromodomain. […] The PHD of TRIM66 shared a low conservation with those of ING4, PHF2, and BPTF, and lacked the conserved aromatic residues, which were necessary for binding H3K4me2/3[40]–[42] (Supplementary Fig. 2b). Nevertheless, TRIM66 was highly conserved in sequence and structure with the PHDs of TRIM24 and TRIM33 (Fig. 1c and Supplementary Fig. 2b), which were reported to bind H3K4me0[5],[6]; thus, we speculated that the PHD of TRIM66 could bind H3K4me0. To verify this hypothesis, we performed isothermal titration calorimetry (ITC)-based binding assays. […] Based on previous researches reporting the acetyl-lysine binding partners of Bromodomain[3]–[12], we chose a series of related peptides derived from H3 and H4, to test their interactions with TRIM66-WT965-1160 by ITC experiments. […] We further found the acetylated state of K56 was necessary for this binding (Supplementary Fig. 3b).
We next titrated the TRIM66-WT965-1160 with a series of R2-methylated H3 peptides through ITC assays. […] This finding was consistent with the structural observation that each NηH atom of the R2 formed a hydrogen bond with residues in protein (Fig. 2d).
The DNA fragments of human TRIM66_968-1160, TRIM24_824-1006, and TRIM33_882-1087 were amplified from a human bone marrow cDNA library using a PCR-based cloning strategy. The fragments of TRIM66-WT968-1160 were inserted into a pGEX-4T-1 plasmid (GE Healthcare). The fragments of TRIM24_824-1006 and TRIM33_882-1087 were ligated into a pET-SUMO-28a (+) plasmid (Novagen). The DNA fragments of TRIM66-MUT968-1160 and TRIM66-WT965-1160 with codon optimization were synthesized by General Biosystems (sequence was shown in Supplementary Methods) and inserted into a pGEXT-4T-1 plasmid (GE Healthcare). Mutants of TRIM66 PHD-Bromo were generated through PCR using the Mutant Best kit (Takara). The mutation of point mutant based on the codon-optimized DNA sequence of TRIM66-WT965-1160. All constructs were expressed in Escherichia coli BL21 (DE3). The construct of ASF1a1-156 inserted into a pRSFDuet plasmid (courtesy of Ruiming Xu Lab, Institute of Biophysics, Chinese Academy of Sciences) was expressed in E. coli BL21 (DE3) RIL. The construct of full-length H4 inserted into a pET3a plasmid was expressed in E. coli BL21 (DE3). The expression of full-length histone H3K56ac was performed in BL21 (DE3) cells transformed with pBK-AxcKRS3 and pET22b encoding H3 with amber codons at the K56 site[12]. The DNA fragment of full-length TRIM66 was synthesized by General Biosystems and ligated into fugw vector (Addgene). See the information of protein sequence in Supplementary Table 1.
(§4) The calorimetric experiments were performed at 25 °C using a MicroCal PEAQ-ITC. The proteins were dialyzed using a buffer containing 20 mM Tris and 100 mM NaCl at pH 7.5. Lyophilized peptides were dissolved in the same buffer and adjusted to pH 7.5 prior to use. Peptide concentrations were estimated from the quantitative NMR experiments[73],[74]. ITC measurements were performed via injection of 0.7–4 mM peptide into a cell containing 0.12 mM TRIM24-PHD-Bromo, 0.05 mM TRIM33 PHD-Bromo, and 0.05 or 0.11–0.15 mM TRIM66-PHD-Bromo (or its mutants). The ITC data were subsequently analyzed using the MicroCal PEAQ-ITC analysis software.

The next assay concerns the target T4, TRIM66-GSGS968-1160 (Homo sapiens, UniProt O15016, A1173S/DEL1165-1171/P1175S/R1172G/S1174G).
T4 construct: We created a mutant protein (termed TRIM66-GSGS968-1160;); GST (N, cleaved yes); made in house; host or cells: Escherichia coli BL21 (DE3)
T4 sequence (O15016 with tags, fused parts or gaps DEL1165-1171/R1172G/A1173S/S1174G/P1175S): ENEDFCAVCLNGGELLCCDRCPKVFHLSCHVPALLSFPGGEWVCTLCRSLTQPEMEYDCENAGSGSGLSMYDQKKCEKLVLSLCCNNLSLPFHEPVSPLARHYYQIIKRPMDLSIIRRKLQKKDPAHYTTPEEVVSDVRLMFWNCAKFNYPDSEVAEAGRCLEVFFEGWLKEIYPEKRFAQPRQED
Briefly: ITC, NMR mutant protein. It is filed as binding. The conditions noted are these: 25 °C, 20 mM Tris, 100 mM NaCl, pH 7.5, single measurement. The protocol:
To investigate the interaction between the H3K56ac peptide and the TRIM66 PHD-Bromodomain, we performed a nuclear magnetic resonance (NMR) titration experiment. We created a mutant protein (termed TRIM66-GSGS968-1160; Supplementary Fig. 1e, Supplementary Fig. 7a, b, Supplementary Table 1, and Supplementary Note 2).
as §4, with “software. […]” for “software.”
protein (TRIM66-WT965-1160) in all the ITC and GST pull down interaction assays. Meanwhile, the […]
experiments and crystal experiment, respectively. […]
combinational manner (Fig. 1d). To further figure out the binding mode between the TRIM66 PHD-Bromodomain and the united H3(1-15)-(48-57) K56ac peptide, we performed a NMR titration experiment and carefully analyzed the linewidth changes of TRIM66 -GSGS968-1160 (this protein is […]

The mark [1] stands for this setting: MicroCal PEAQ-ITC, 20 mM Tris, 100 mM NaCl, single measurement, error from curve fit, Weak binding = ITC curves cannot be fitted reliably, N.D. = no detectable binding.

Entries after “also recorded” stand apart in the source; their conditions may differ.

In the case of “H3R2me2s: symmetrically dimethylated H3R2 peptide”, the KD result with TRIM24_824-1006 is listed as “Weak binding”; with TRIM33_882-1087 it was “Weak binding”; in the assay with TRIM66-WT965-1160 (setting [1]) it was “Weak binding; also recorded: ^aWeak binding”. In addition, the “binding (in words)” value with TRIM66-WT965-1160 is recorded as “obvious reduction in their binding affinities”.
With `CC[C@H](C)[C@H](NC(=O)[C@H](CCC(=O)O)NC(=O)[C@H](CCCNC(=N)N)NC(=O)[C@@H](N)CC(C)C)C(=O)N[C@@H](CCCNC(=N)N)C(=O)N[C@@H](CCCNC(=N)N)C(=O)N[C@@H](Cc1ccc(O)cc1)C(=O)N[C@@H](CCC(N)=O)C(=O)N[C@@H](CCCCNC(C)=O)C(=O)N[C@@H](CO)C(=O)O` [H3_48-57K56ac], the equilibrium dissociation constant (Kd) at TRIM66-GSGS968-1160 stood at 127 ± 9.53 µM; on TRIM66-WT965-1160 (setting [1]), 109 µM.
